Test [1] addresses HveC(346t) (human) (UniProt Q15223). As to the kind of experiment: gel filtration.
The target of test [2] is HveA(200t) (human) (UniProt Q92956). As to the kind of experiment: ELISA, HveAt on the plate.
Test [3] deals with HveC(346t) (human) (UniProt Q15223). As to the kind of experiment: gel filtration at various molar ratios. Background: Size exclusion chromatography separates by hydrodynamic size, large species first.
For test [4] the target is unchanged. Nature of the test: silver-stained SDS-PAGE of the complex fraction.
The target is the same in test [5]. Nature of the test: ELISA, HveCt on the plate. (In general: In an ELISA, binding on a coated surface is turned into a signal by an enzyme label.)
Test [6] shares this target. As to the kind of experiment: ELISA, apparent affinity from half-maximal binding, HveCt on the plate.
For test [7], the target named is HveA(200t) (human) (UniProt Q92956). As to the kind of experiment: ELISA, apparent affinity from half-maximal binding, HveAt on the plate.
For test [8], the target named is HveC(346t) (human) (UniProt Q15223). As to the kind of experiment: SPR (Biacore X), HveC(346t) amine-coupled to the chip, gD in flow, 1:1 Langmuir global fit.
Test [9] concerns the target HveC(143t) (human) (UniProt Q15223). Nature of the test: SPR (Biacore X), HveC(143t) amine-coupled to the chip, gD in flow, 1:1 Langmuir global fit. In general terms: Surface plasmon resonance follows binding to a sensor surface in real time, without labels.
Test [10] has the same target. Nature of the test: SPR (Biacore X), HveC(143t) amine-coupled to the chip, gD in flow, KD = koff/kon.
In test [11] the target is HveC(346t) (human) (UniProt Q15223). As to the kind of experiment: SPR (Biacore X), HveC(346t) amine-coupled to the chip, gD in flow, KD = koff/kon.
Test [12] addresses HveC(143t) (human) (UniProt Q15223). As to the kind of experiment: silver-stained PAGE of the complex fraction against standards.
Test [13] concerns the target HveC(346t) (human) (UniProt Q15223). As to the kind of experiment: SPR (Biacore X).
Test [14] has the same target. As to the kind of experiment: silver-stained gel analysis of the complex formed in excess gD(285t).
Test [15] shares this target. Nature of the test: gel filtration, from the size of the complex.
A further test deals with HveC(245t) (human) (UniProt Q15223). Nature of the test: gel filtration, from the size of the complex.
In test [16] the target is HveC(143t) (human) (UniProt Q15223). As to the kind of experiment: gel filtration, from the size of the complex.

Sequence of UniProt Q92956 (Q92956 39-202): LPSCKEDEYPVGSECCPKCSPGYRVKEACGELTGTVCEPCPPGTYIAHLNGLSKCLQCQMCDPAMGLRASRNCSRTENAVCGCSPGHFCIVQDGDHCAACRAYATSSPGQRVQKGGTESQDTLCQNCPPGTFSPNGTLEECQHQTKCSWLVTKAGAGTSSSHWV

For the substance gD-1(A290-299t) (ligand), the stoichiometry (gD:HveC) with HveC(346t) (human) [1] was found to be 2 gD per HveC. The fold increase in binding compared to wild type gD(306t) with HveA(200t) (human) [2] and with HveC(346t) (human) [5] was 100 fold throughout. Besides, the stoichiometry (gD:HveCt) with HveC(346t) (human) [3] came to 2 gD per HveCt. The gD:HveCt ratio in the complex with HveC(346t) (human) [4] turned out to be 1.6 gD per HveCt.
As to gD-1(306t) KOS (ligand), the Kd with HveC(346t) (human) [6] was 1 µM; in the test with HveA(200t) (human) [7] it was 0.3 µM; in the test with HveC(143t) (human) [10], 1.2 µM; in the test with HveC(346t) (human) [11] it was 3.2 µM. For the same substance, the gD concentration at saturation with HveA(200t) (human) [2] lay within 2 to 3 µM. For the same substance, the koff (usually a measure of how fast the partners let go of each other) with HveC(346t) (human) [8] is 0.007 s⁻¹; with HveC(143t) (human) [9] it was 0.011 s⁻¹. In addition, the figures for the kon with HveC(346t) (human) [8] and with HveC(143t) (human) [9] were 2200 M⁻¹ s⁻¹ and 9000 M⁻¹ s⁻¹, respectively. This substance had a gD concentration at saturation (µM (printed RM)) with HveC(346t) (human) [5] of 10 to 20.
Turning to gD(285t) (ligand), in the test with HveC(143t) (human) [12], the ratio in the complex (HveC(143t) per gD(285t)) worked out at 1. Also, the fold increase in affinity over gD(306t) with HveC(346t) (human) [13] was greater than 80 fold. The ratio in the complex with HveC(346t) (human) [14] was 2 gD per HveC. Besides, the stoichiometry (gD:HveC) stood at 2 gD per HveC in the test with HveC(346t) (human) [15], 1 gD per HveC with HveC(245t) (human) and 1 gD per HveC with HveC(143t) (human) [16]. Moreover, the values for the koff in the test with HveC(346t) (human) [8] and with HveC(143t) (human) [9] were 0.0073 s⁻¹ and 0.013 s⁻¹, respectively. The results for the kon in the test with HveC(346t) (human) [8] and in the test with HveC(143t) (human) [9] were 190000 M⁻¹ s⁻¹ and 370000 M⁻¹ s⁻¹, respectively. Moreover, the Kd with HveC(143t) (human) [10] came out at 0.035 µM; with HveC(346t) (human) [11], 0.038 µM.
In the test with HveC(346t) (human) [13], gD(306t)rid1 (ligand) showed a fold increase in affinity compared to gD(306t) of 20 fold. Moreover, the koff with HveC(346t) (human) [8] is 0.0047 s⁻¹; in the test with HveC(143t) (human) [9], 0.008 s⁻¹. Besides, the kon (usually the second-order rate constant of association) with HveC(346t) (human) [8] amounted to 27000 M⁻¹ s⁻¹; with HveC(143t) (human) [9], 39000 M⁻¹ s⁻¹. The Kd amounted to 0.2 µM with HveC(143t) (human) [10] and 0.17 µM in the test with HveC(346t) (human) [11].

The values are drawn from patent US6641818.
